Read-outs that look alike come from different tables or passages of the source.
What was measured:
Plasma stability [1] = test: Plasma stability
Experimental: (§1) A small amount of molecule was exposed to plasma, and the plasma was then analyzed via HPLC or MS to determine if the molecule was degraded.

in vivo = format: in vivo, mice
Experimental: Listed in Table 5 are the doses administered to the mice, and how many mice were alive after treatment (“3/3” indicates 3 out of 3 mice were alive). […] MTD for CLR 1865 was between 5 and 10 mg/kg.

[2] = test system: A549 (human lung adenocarcinoma); test: cells; format: cell-based; conditions: for Therapeutic Index (TI), second value in parentheses: from the NHDF value in parentheses
in vitro [3] = conditions: human, plasma
Experimental: as §1

in vitro [4] = conditions: mouse, plasma
Experimental: as §1

Plasma stability [5] = test: Plasma stability; remark: listed apart in the source
Experimental: as §1

[6] = test system: Colorectal (HCT-116) tumor; test: In vivo imaging of targeted delivery; set-up: species or system nude mouse
Experimental: Initial targeting noted within 30 minutes (not shown).

[7] = test system: HCT 116 cells (human colon cancer); format: in vivo; conditions: three doses of 1 mg/mg each, FIG. 9

Row | SMILES | human plasma stability (Plasma stability [1]) | mice alive after treatment (in vivo; Dose 0.1 mg/kg) | mice alive after treatment (in vivo; Dose 0.25 mg/kg) | mice alive after treatment (in vivo; Dose 0.5 mg/kg) | mice alive after treatment (in vivo; Dose 1.0 mg/kg) | mice alive after treatment (in vivo; Dose 5.0 mg/kg) | mice alive after treatment (in vivo; Dose 10.0 mg/kg) | tolerability compared to FLV3 alone (in vivo; mice) | Therapeutic Index (TI), second value in parentheses ([2]; in vitro) | half-life (in vitro [3]) [h] | half-life (in vitro [4]) [h] | further results
1 | COc1ccc([C@@]23Oc4cc(OCCCCNC(=O)OCC(C)(C)SSCCCCCCCCCCCCCCCCCCOP(=O)([O-])OCC[N+](C)(C)C)cc(OC)c4[C@]2(O)[C@H](O)[C@H](C(=O)O)[C@H]3c2ccccc2)cc1 [CLR 1865] | excellent human plasma stability | 3/3 | 3/3 | 3/3 | 3/3 | 3/3 | 2/3 | excellent improvement in tolerability | (37.3) | > 6.67 | 3.32 | in vivo therapeutic index (in vivo; mice): ≥ 12.5; MTD (in vivo; mouse, in vivo, mice, read-out: maximum tolerated dose (MTD)): 5 to 10 mg/kg; Therapeutic Index (TI) ([2]; in vitro, NHDF IC50 relative to cancer cell IC50): 11.64; time stable in mouse plasma (Plasma stability [5]; mouse): 3.3 h
2 | CN1/C(=C/C=C2\CCCC(/C=C/C3=[N+](C)c4ccccc4C3(C)C)=C2c2ccc(CCCCCCCCCCCCCCCCCCOP(=O)(O)OCC[N+](C)(C)C)cc2)C(C)(C)c2ccccc21 [CLR 1502] | – | – | – | – | – | – | – | – | – | – | – | time to initial targeting ([6]; 1 mg injected): ≤ 30 min; time to maximum distribution ([6]; 1 mg injected, Pearl Infrared Imaging System): ≤ 24 h; distribution in tumor ([6]; approximately 5.5 hours post injection, 1 mg): the tumor still showed red color
3 | COC(=O)[C@H]1[C@@H](O)[C@@]2(O)c3c(OC)cc(OCCCCNC(=O)OCC(C)(C)SSCCCCCCCCCCCCCCCCCCOP(=O)([O-])OCC[N+](C)(C)C)cc3O[C@@]2(c2ccc(OC)cc2)[C@@H]1c1ccccc1 [CLR 1852] | excellent human plasma stability | 3/3 | 3/3 | 3/3 | 3/3 | 3/3 | 3/3 | excellent improvement in tolerability | (915) | > 6.67 | > 6.67 | maximum tolerated dose (MTD) (in vivo; mice): did not achieve a maximum tolerated dose; in vivo therapeutic index (in vivo; mouse, in vivo): at least 25; Therapeutic Index (TI) [2]: 360; cytotoxic potency compared to FLV3 alone ([2]; various concentrations, FIG. 8 (A549 and NHDF)): modest loss in potency; tumor volume compared to vehicle [7]: reduced the tumor volume beginning at around 27 days; time stable in plasma (Plasma stability [5]; species not given): at least 7 hours
